Source: the supplement of paper PMC10567573

B1: POMT2 (parent)
chain: VKYNSCADRPFSAPWWFWLSLTGV

Variants of: B1
Assay: protein stability index of a GFP-peptide fusion (GPS, HEK-293T) (PSI 1-6); higher = more stable
Conditions: c terminus: a fixed tail appended
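Further: lentivirally expressed fusions sorted by FACS into six bins by GFP to DsRed ratio, PSI derived from sequencing read proportions per bin multiplied by bin number.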

With VKYNSCADRAFSAPWWFWLSLTGV as the variant, how does the protein stability index read?
Its protein stability index is 2.24.

Which protein stability index does the source give for VKYNSCADRLFSAPWWFWLSLTGV here?
The protein stability index was 2.5.

With VKYNSCADREFSAPWWFWLSLTGV as the variant, how does the protein stability index read?
The protein stability index was 1.63.

Which protein stability index does the source give for VKYNSCADRMFSAPWWFWLSLTGV here?
The protein stability index was 1.94.

Which protein stability index does the source give for VKYNSCYDRPFSAPWWFWLSLTGV here?
The protein stability index was 1.39.

Which protein stability index does the source give for HKYNSCADRPFSAPWWFWLSLTGV here?
Its protein stability index is 1.1.

For LKYNSCADRPFSAPWWFWLSLTGV, which protein stability index is on record?
The protein stability index was 1.66.

Which protein stability index does the source give for CKYNSCADRPFSAPWWFWLSLTGV here?
Its protein stability index is 2.99.

Which protein stability index does the source give for AKYNSCADRPFSAPWWFWLSLTGV here?
Its protein stability index is 3.3.

Which protein stability index does the source give for RKYNSCADRPFSAPWWFWLSLTGV here?
The protein stability index was 1.98.

With VKYNSCADRPSSAPWWFWLSLTGV as the variant, how does the protein stability index read?
The protein stability index was 1.

For VKYNSCADRPGSAPWWFWLSLTGV, which protein stability index is on record?
Its protein stability index is 2.84.

Which protein stability index does the source give for VKQNSCADRPFSAPWWFWLSLTGV here?
Its protein stability index is 1.41.

Which protein stability index does the source give for VKPNSCADRPFSAPWWFWLSLTGV here?
Its protein stability index is 2.55.

With VKDNSCADRPFSAPWWFWLSLTGV as the variant, how does the protein stability index read?
The protein stability index was 2.19.

With VKKNSCADRPFSAPWWFWLSLTGV as the variant, how does the protein stability index read?
The protein stability index was 2.11.

Which protein stability index does the source give for VKYNSCADRPFSACWWFWLSLTGV here?
Its protein stability index is 2.27.

Which protein stability index does the source give for VKYNSCADRPFSAAWWFWLSLTGV here?
The protein stability index was 2.21.

Which protein stability index does the source give for VKYNSCADRPFSAGWWFWLSLTGV here?
Its protein stability index is 2.4.

Which protein stability index does the source give for VKYNSCADRPFSAFWWFWLSLTGV here?
The protein stability index was 1.35.

With VKYNSCADRPFSAVWWFWLSLTGV as the variant, how does the protein stability index read?
The protein stability index was 2.71.

For VKYNSCADRPFSAYWWFWLSLTGV, which protein stability index is on record?
The protein stability index was 1.21.

For VKYNSCADRPFSAPWWFWLSLTEV, which protein stability index is on record?
Its protein stability index is 5.35.

With VKYNSCADRPFSAPWWFWLSLTAV as the variant, how does the protein stability index read?
The protein stability index was 1.77.

Which protein stability index does the source give for VKYNSCADRPFSAPWWFWLSLTNV here?
The protein stability index was 1.69.

For VKYNSCADRPFSAPWWFWLSLTMV, which protein stability index is on record?
Its protein stability index is 1.55.

With VKYNSCADRPFSAPWWFWLSLTVV as the variant, how does the protein stability index read?
Its protein stability index is 2.98.

For VKYNSCADRPFSAPWWFWLSLTFV, which protein stability index is on record?
The protein stability index was 2.65.

Which protein stability index does the source give for VKYNSCADRPFSAPWWFWLSLTCV here?
The protein stability index was 1.24.

Which protein stability index does the source give for VKYNSCADRPFSAPWWFWLSLTQV here?
The protein stability index was 4.6.

Which protein stability index does the source give for VKYNSCADRPFSAPWWFWLSLTTV here?
Its protein stability index is 2.04.

Which protein stability index does the source give for VKYNSCADRPFSAPWWFWLSLTIV here?
Its protein stability index is 2.22.

With VKYNSCADRPFSAPWWFWLSLTSV as the variant, how does the protein stability index read?
The protein stability index was 1.47.

Which protein stability index does the source give for VKYNSCADRPFSAPWWFWLSLTWV here?
The protein stability index was 1.21.

With VKYNSCADRPFSAPWLFWLSLTGV as the variant, how does the protein stability index read?
The protein stability index was 1.8.

Which protein stability index does the source give for VKYNSCADRPFSAPWDFWLSLTGV here?
Its protein stability index is 3.79.

With VKYNSCADRPFSAPWVFWLSLTGV as the variant, how does the protein stability index read?
The protein stability index was 2.01.

With VKYNSCADRPFSAPWIFWLSLTGV as the variant, how does the protein stability index read?
Its protein stability index is 3.2.

Which protein stability index does the source give for VKYNSCADRPFSAPWQFWLSLTGV here?
The protein stability index was 1.78.

Which protein stability index does the source give for VKYNSCADRPFSAPWPFWLSLTGV here?
The protein stability index was 2.08.

With VKYNSCADRPFSAPWTFWLSLTGV as the variant, how does the protein stability index read?
The protein stability index was 3.23.

With VKYNSLADRPFSAPWWFWLSLTGV as the variant, how does the protein stability index read?
Its protein stability index is 2.11.

With VKYNSIADRPFSAPWWFWLSLTGV as the variant, how does the protein stability index read?
Its protein stability index is 2.36.

Which protein stability index does the source give for VKYNSTADRPFSAPWWFWLSLTGV here?
The protein stability index was 1.92.

Which protein stability index does the source give for VKYNSNADRPFSAPWWFWLSLTGV here?
The protein stability index was 1.02.

For VKYNSDADRPFSAPWWFWLSLTGV, which protein stability index is on record?
Its protein stability index is 2.84.

With VKYNSGADRPFSAPWWFWLSLTGV as the variant, how does the protein stability index read?
The protein stability index was 1.73.

With VKYNSCADRPFSAPWWFWLSLTGN as the variant, how does the protein stability index read?
Its protein stability index is 1.81.

Which protein stability index does the source give for VKYNSCADRPFSAPWWFWLSLTGL here?
Its protein stability index is 5.16.

With VKYNSCADRPFSAPWWFWLSLTGE as the variant, how does the protein stability index read?
The protein stability index was 1.

Which protein stability index does the source give for VKYNSCADRPFSAPWWFWLSLTGR here?
The protein stability index was 1.87.

Which protein stability index does the source give for VKYNSCADRPFSAPWWFWLSLTGT here?
Its protein stability index is 1.5.

For VKYNSCADRPFSAPWWFWLSLTGI, which protein stability index is on record?
Its protein stability index is 2.98.

Which protein stability index does the source give for VKYNSCADRPFSAPWWFWLSLTGA here?
Its protein stability index is 2.85.

For VKYNSCADRPFSAPWWFWLSLTGY, which protein stability index is on record?
Its protein stability index is 2.1.

For VKYNSCADRPFSAPWWFWLSLTGM, which protein stability index is on record?
Its protein stability index is 2.61.

With VKYNSCADRPFSAPWWFWLCLTGV as the variant, how does the protein stability index read?
Its protein stability index is 2.22.

Which protein stability index does the source give for VKYNSCADRPFSAPWWFWLYLTGV here?
Its protein stability index is 2.25.

With VKYNSCADRPFSAPWWFWLFLTGV as the variant, how does the protein stability index read?
Its protein stability index is 1.04.

With VKYNSCADRPFSAPWWFWLMLTGV as the variant, how does the protein stability index read?
Its protein stability index is 3.17.

Which protein stability index does the source give for VKYNSCADRPFSAPWWFWLILTGV here?
Its protein stability index is 2.08.

Which protein stability index does the source give for VKYNSCADRPFSAPWWFWLHLTGV here?
The protein stability index was 2.9.

With VKYNSCADRPFSAPWWFWLLLTGV as the variant, how does the protein stability index read?
The protein stability index was 1.47.

With VKYNSCADRPFFAPWWFWLSLTGV as the variant, how does the protein stability index read?
Its protein stability index is 2.65.

With VKYNSCADRPFAAPWWFWLSLTGV as the variant, how does the protein stability index read?
Its protein stability index is 3.27.

With VKYNSCADRPFIAPWWFWLSLTGV as the variant, how does the protein stability index read?
The protein stability index was 3.2.

For VKYNSCADRPFSAPWWFWLSATGV, which protein stability index is on record?
The protein stability index was 3.62.

Which protein stability index does the source give for VKYNSCADRPFSAPWWFWLSKTGV here?
The protein stability index was 1.12.

For VKYNSCADRPFSAPWWFWLSPTGV, which protein stability index is on record?
The protein stability index was 2.68.

With VKYNSCADRPFSAPWWFWLSNTGV as the variant, how does the protein stability index read?
The protein stability index was 2.88.

Which protein stability index does the source give for VKYESCADRPFSAPWWFWLSLTGV here?
The protein stability index was 3.12.

For VKYTSCADRPFSAPWWFWLSLTGV, which protein stability index is on record?
Its protein stability index is 3.25.

Which protein stability index does the source give for VKYVSCADRPFSAPWWFWLSLTGV here?
The protein stability index was 3.46.

Which protein stability index does the source give for VKYNSCADRPFSAPWWFWNSLTGV here?
The protein stability index was 2.79.

Which protein stability index does the source give for VKYNSCADRPFSAPWWFWTSLTGV here?
Its protein stability index is 1.64.

For VKYNSCADRPFSAPWWFWISLTGV, which protein stability index is on record?
The protein stability index was 1.76.

For VKYNSCADRPFSAPWWFWESLTGV, which protein stability index is on record?
Its protein stability index is 1.65.

For VKYNSCADRPFSAPWWFWFSLTGV, which protein stability index is on record?
Its protein stability index is 2.95.

With VKYNSCADFPFSAPWWFWLSLTGV as the variant, how does the protein stability index read?
Its protein stability index is 3.16.

For VKYNSCADLPFSAPWWFWLSLTGV, which protein stability index is on record?
Its protein stability index is 2.

Which protein stability index does the source give for VKYNSCADAPFSAPWWFWLSLTGV here?
Its protein stability index is 2.8.

Which protein stability index does the source give for VKYNSCADWPFSAPWWFWLSLTGV here?
The protein stability index was 3.34.

With VKYNSCADIPFSAPWWFWLSLTGV as the variant, how does the protein stability index read?
Its protein stability index is 3.57.

For VKYNSCADGPFSAPWWFWLSLTGV, which protein stability index is on record?
The protein stability index was 3.51.

For VKYNSCADNPFSAPWWFWLSLTGV, which protein stability index is on record?
The protein stability index was 3.39.

With VKYNSCADRPFSAPWWTWLSLTGV as the variant, how does the protein stability index read?
The protein stability index was 3.3.

For VKYNSCADRPFSAPWWWWLSLTGV, which protein stability index is on record?
Its protein stability index is 1.33.

With VKYNSCADRPFSAPWWVWLSLTGV as the variant, how does the protein stability index read?
Its protein stability index is 2.16.

With VKYNSCADRPFSAPWWKWLSLTGV as the variant, how does the protein stability index read?
Its protein stability index is 2.65.

For VNYNSCADRPFSAPWWFWLSLTGV, which protein stability index is on record?
Its protein stability index is 2.4.

For VRYNSCADRPFSAPWWFWLSLTGV, which protein stability index is on record?
The protein stability index was 2.2.

For VFYNSCADRPFSAPWWFWLSLTGV, which protein stability index is on record?
Its protein stability index is 2.75.

With VYYNSCADRPFSAPWWFWLSLTGV as the variant, how does the protein stability index read?
Its protein stability index is 3.34.

Which protein stability index does the source give for VTYNSCADRPFSAPWWFWLSLTGV here?
Its protein stability index is 1.61.
